Laboratory results from article PMC11734622.

Target: HA-tagged human GABARAP [human]
Test: co-immunoprecipitation (anti-HA IP), immunoblot quantification
Settings: 2 h, RAW 264.7 LRRK2 KO cells, read off a plot

Substance	response (DMSO, parent: 1) [A.U.]	response (DMXAA 100 µg/mL, parent: 3.5) [A.U.]
Halo-tagged human LRRK2 (WT) mutant W875A; I878A [human] / HA-tagged human GABARAP [human] chain 1 W875A, chain 1 I878A	1.1	1.7
Halo-tagged human LRRK2 (WT) mutant W109A; L112A [human] / HA-tagged human GABARAP [human] chain 1 W109A, chain 1 L112A	0.25	0.9
Halo-tagged human LRRK2 (WT) mutant W109A; L112A; W875A; I878A [human] / HA-tagged human GABARAP [human] chain 1 W109A, chain 1 L112A, chain 1 W875A, chain 1 I878A	0.4	0.85
